Drawing on publication PMC5684335, “ER-associated degradation regulates Alzheimer’s amyloid pathology and memory function by modulating γ-secretase activity” (Nature Communications, 2017), this text covers FRET efficiency for six molecules.

Sequences and labels used below:
B1: EMC3-EGFP (natural protein, mouse, UniProt Q99KI3 1-261, looked up)
chain: MAGPELLLDSNIRLWVVLPIVIITFFVGMIRHYVSILLQSDKKLTQEQVSDSQVLIRSRVLRENGKYIPKQSFLTRKYYFNNPEDGFFKKTKRKVVPPSPMTDPTMLTDMMKGNVTNVLPMILIGGWINMTFSGFVTTKVPFPLTLRFKPMLQQGIELLTLDASWVSSASWYFLNVFGLRSIYSLILGQDNAADQSRMMQEQMTGAAMAMPADTNKAFKTEWEALELTDHQWALDDVEEELMARDLHFEGMFKKELQTSIF
notes: EMC3, mouse cDNA from the IMAGE consortium, subcloned into pEGFP-N1; FRET donor; vector pEGFP-N1; also called EMC3-GFP; source: HEK293T, transfected, in living cells
B2: Ubac2-EGFP (natural protein, mouse, UniProt Q8R1K1 40-345, looked up)
chain: FFVYDLHAVKHDLQIWRLICGRIICLDLKDAFCSGLLIYNFRIFERRYGSRKFASFLLGSWVLSALFDFILVEAVQYSLGVTVASNLPSGFLAPVFALFVPFHCSIPRVQVAQILGPLSITNKTLIYILGLQLFTSGSYIWIVAMSGLISGMCYDRKVLQVHQVLRIPGRMAEFFSWALEPIFSSSEPTSEARVGMGATVDIQRQQRMEQLDRQLMLSQFAQVRRQRQQQGGMINWNRLFPPLRQRRNINYQDGPRSEQRASPPLEVSEEQVARLMEMGFSRGDALEALRASNNDLNVATNFLLQH
notes: Ubac2, mouse cDNA from the IMAGE consortium, subcloned into pEGFP-N1; FRET donor; vector pEGFP-N1; source: HEK293T, transfected, in living cells
B3: EMC1-EGFP (natural protein, mouse, UniProt Q8C7X2 24-997, looked up)
chain: YEDQVGKFDWRQQYVGKIKFASLEFSPGSKKLVVATEKNVIAALNSRTGEILWRHVDKGTAEGAVDAMLVHGQDAITVSNGGRLMRSWETNIGGLNWEITLDTGSFQALGLVGLQESVRYIAVLKKTTLTLHHLSSGHLKWVEHLPESDSILYQMVYSYGSGVVWALGIVPFSHVNIVKFNVEDGEIVQQVRVWTPWLQHLTGACGVVDEAVLVCPDPSSHSLHTLALETEWELRQIPLQSPDLEFGSGFQPQVLPTQPSPVAPSRAQFFLQLSPSHYALLHYHHGAVTLLKNFPQATLVSFATTGEKTVAAVMTCRTEVQKPVSAGDGSVASFPETSGAQDSLACFNQTYTINLYLVETGRRLLDTSISFSLEQKGTRPEQLYIQVFLKKDDSVGYRALVQTQDHLQLFLQQLAGKVVLWSREESLAEVVCLEMVDLPLTGAQAELEGEFGKKAAIQDGLLGMFLKRLSSQLILLQAWTSHLWKMFYDARKPRSQIKNEINIDTLARDEFNLQKMMVTVTASGKLFGIESSSGTILWKQYLPNVKPDSSFKLMVQRTTAHFPHPPQCTLLVKDKETGMSSLFVFNPIFGKWSQVAPPVLKRPILQSLLLPVMDQDYAKVLLLVDDEYKVTAFPATRNVLRQLHELAPSIFFYLVDAEQGRLSGYQLRKDLTTELSWELTIPPEVQRVVKVKGKRSSEHVHSQGRVMGDRSVLYKSLNPNLLAVVTESTDVHHERTFIGIFLIDGVTGRIIHSSVQKKARGPVHLVHSENWVVYQYWNSKARRNELTALELYEGTEQYNATAFSSLDRPQLPQVLQQSYIFPSSISAMEATITERGITSRHLLIGLPSGAILSLPKALLDPRRPEIPTEQSREENLIPYSPDVQVHAERFINYNQTVSRMRGIYTAPSGLESTCLVVAYGLDIYQTRVYPSKQFDVLKDDYDYVLISSVLFGLVFATMITKRLAQVKLLNRAWR
notes: EMC1, mouse cDNA from the IMAGE consortium, subcloned into pEGFP-N1; FRET donor; vector pEGFP-N1; source: HEK293T, transfected, in living cells
B4: SYVN1-EGFP (natural protein, mouse, UniProt Q9DBY1 1-612, looked up)
chain: MFRTAVMMAASLALTGAVVAHAYYLKHQFYPTVVYLTKSSPSMAVLYIQAFVLVFLLGKVMGKVFFGQLRAAEMEHLLERSWYAVTETCLAFTVFRDDFSPRFVALFTLLLFLKCFHWLAEDRVDFMERSPNISWLFHCRIVSLMFLLGILDFLFVSHAYHSILTRGASVQLVFGFEYAILMTMVLTIFIKYVLHSVDLQSENPWDNKAVYMLYTELFTGFIKVLLYMAFMTIMIKVHTFPLFAIRPMYLAMRQFKKAVTDAIMSRRAIRNMNTLYPDATPEELQAVDNVCIICREEMVTGAKRLPCNHIFHTSCLRSWFQRQQTCPTCRMDVLRASLPAQSPPPPEPADQGPPPAPHPQPLLPQPPNFPQGLLPPFPPGMFPLWPPMGPFPPVPPPPSSGEAAAPPPTSTAVSRPSGAATTTAAGTSTSAPAPGSVPGPEAGPAPGFPFPPPWMGMPLPPPFAFPPMPVPPAGFAGLTPEELRALEGHERQHLEARLQSLRNIHTLLDAAMLQINQYLTVLASLGPPRPATSVNPTEETASTVVSAAPSTSAPSSEAPTPSPGASPPIPEAEKPPAPESVGIVEELPEDGEPDAAELRRRRLQKLESPVAH
notes: SYVN1 (Hrd1), mouse cDNA from the IMAGE consortium, subcloned into pEGFP-N1; FRET donor; vector pEGFP-N1; also called SYVN1-GFP; source: HEK293T, transfected, in living cells
B5: Derlin1-EGFP (natural protein, mouse, UniProt Q99J56 1-251, looked up)
chain: MSDIGDWFRSIPAITRYWFAATVAVPLIGKLGIISPAYFFLWPEAFLYRFQIWRPFTATFYFPVGPGTGFLYLVNLYFLYQYSTRLEAGAFDGRPADYLFMLLFNWICIVITGLAMDMQLLMIPLIMSVLYVWAQLNRDLIVSFWFGTRFKACYLPWVILGFNYIIGGSVINELIGNLVGHLYFFLMFRYPMDLGGRNFLSTPQFLYRWLPSRRGGVSGFGVPPASMRRAADQNGGGGRHNWGQGFRLGDQ
notes: Derlin1, mouse cDNA from the IMAGE consortium, subcloned into pEGFP-N1; FRET donor; vector pEGFP-N1; source: HEK293T, transfected, in living cells

T1 sequence (Q8CIV2 whole entry): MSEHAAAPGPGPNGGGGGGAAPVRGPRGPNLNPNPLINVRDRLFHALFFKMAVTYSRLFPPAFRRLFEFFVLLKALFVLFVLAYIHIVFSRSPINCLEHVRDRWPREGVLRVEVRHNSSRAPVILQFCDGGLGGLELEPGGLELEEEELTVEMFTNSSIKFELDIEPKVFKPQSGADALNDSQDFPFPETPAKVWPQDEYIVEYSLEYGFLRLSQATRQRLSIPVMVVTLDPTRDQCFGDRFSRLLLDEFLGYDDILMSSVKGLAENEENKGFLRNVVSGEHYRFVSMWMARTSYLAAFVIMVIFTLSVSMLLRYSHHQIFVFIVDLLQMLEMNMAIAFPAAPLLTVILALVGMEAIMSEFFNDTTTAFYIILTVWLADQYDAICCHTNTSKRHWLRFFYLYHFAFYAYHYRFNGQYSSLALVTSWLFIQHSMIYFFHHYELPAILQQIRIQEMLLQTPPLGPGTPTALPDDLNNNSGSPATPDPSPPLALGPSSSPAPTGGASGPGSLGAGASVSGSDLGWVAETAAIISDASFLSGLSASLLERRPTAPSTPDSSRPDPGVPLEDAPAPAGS

The first experiment concerns the target T1, membralin-mCherry (mouse, UniProt Q8CIV2 1-574).
T1 construct: membralin (TMEM259), mouse cDNA from the IMAGE consortium, subcloned into pmCherry-N1; FRET acceptor; also called mCherry-tagged membralin; source: HEK293T, transfected, in living cells
Put plainly: FRET or BRET; acceptor photobleaching in HEK293T co-transfected 24 h with target-EGFP (donor) and membralin-mCherry (acceptor); 10 cells, three independent experiments.
Conditions: not given
For “FAM8A1-EGFP (from UniProt Q9UBU6 1-413) (natural protein)”, the FRET efficiency came out at 33.9%.

The same experiment, now with this note: partners not purified.
B1 yielded an FRET efficiency of 26.3%.
The same measure, in the same setting: with B2 the figure was 33.1%.
Same read-out and setting: the value for B3 was 22.4%; that for B4 was 21.8%; that for B5 was 12.3%.
